Results: article doi:10.1101/2022.03.26.485915 (bioRxiv, 2022)

Target: the molecule itself
Test: in-vitro amyloid aggregation

B1: Envelope domain III (EDIII) protein of ZIKV (domain or fragment, Zika virus)
chain: MGVSYSLCTAAFTFTKIPAETLHGTVTVEVQYAGTDGPCKVPAQMAVDMQTLTPVGRLITANPVITESTENSKMMLELDPPFGDSYIVIGVGEKKITHHWHRSGSTIGKGQFYLNELE
- binding result: binds
